# Measurements as given in publication PMC6582607, “Development of a novel ssDNA aptamer targeting neutrophil gelatinase-associated lipocalin and its application in clinical trials”.
# Target: T1, NGAL (neutrophil gelatinase-associated lipocalin) (UniProt P80188 21-198)
# Test: magnetic bead pull-down, qPCR; 20 nM; binding buffer (composition and pH not in material), room temperature, 1 h, NGAL-coated magnetic beads (about 0.20 ug NGAL per uL beads)
# T1 sequence (P80188 21-198): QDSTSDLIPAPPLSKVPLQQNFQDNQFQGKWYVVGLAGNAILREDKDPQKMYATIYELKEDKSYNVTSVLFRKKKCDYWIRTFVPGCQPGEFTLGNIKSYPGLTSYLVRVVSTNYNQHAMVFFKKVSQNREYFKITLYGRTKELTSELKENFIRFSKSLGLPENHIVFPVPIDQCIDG
row,Binder,binding signal
1,NA37 (ssDNA) DNA: AGCAGCACAGAGGTCAGATGCCCATATGCTACTTTGCACACATCCTGGATAGGCTCCTATGCGTGCTACCGTGAA,> 4 dCt (cycles vs bare beads)
2,NA40 (ssDNA) DNA: AGCAGCACAGAGGTCAGATGGCGCTGGATAGCAAGATCACGTTATCATCGTAAACCCTATGCGTGCTACCGTGAA,> 4 dCt (cycles vs bare beads)
3,NA39 (ssDNA) DNA: AGCAGCACAGAGGTCAGATGGCGCTGGATAGCAAGATCACGTTATCATCGTAAACCCTATGCGTGCTACCGTGAA,> 4 dCt (cycles vs bare beads)
4,NA27 (ssDNA) DNA: AGCAGCACAGAGGTCAGATGGCGCTGGATAGCAAGATCACGTTATCGTCGTAAACCCTATGCGTGCTACCGTGAA,> 4 dCt (cycles vs bare beads)

# Target: T1, NGAL (neutrophil gelatinase-associated …)
# Test: magnetic bead pull-down, qPCR; binding buffer (composition and pH not in material), room temperature, 1 h, NGAL-coated magnetic beads (about 0.20 ug NGAL per uL beads)
row,Binder,Kd [nM]
1,NA42 (ssDNA) DNA: AGCAGCACAGAGGTCAGATGCCGTGCGGATGTACAGGGACTTGGATAGTTTCTGACCTATGCGTGCTACCGTGAA,66.5
2,NA36 (ssDNA) DNA: AGCAGCACAGAGGTCAGATGCCCATATGCTACTTTGCACACATCCTGGATAGGCTCCTATGCGTGCTACCGTGAA,43.6
3,NA53 (ssDNA) DNA: AGCAGCACAGAGGTCAGATGGCGCTGGATAGCAAGATCACGTTATCATCGTAAACCCTATGCGTGCTACCGTGAA,32.5
